The values that follow come from publication PMC2888818.

For this data set, the target named is LetA (UniProt Q8KQL1 1-219). The data set is described as follows: EMSA. On the technique in general: Mobility shift assays separate free from complexed probe on a gel.

B1: rsmZ upstream 35mer (dsDNA)
DNA 1: GTAATTGATGTAAGAAATTTCTCAATTCCATAGA
DNA 2: TCTATGGAATTGAGAAATTTCTTACATCAATTAC
B1: the binding result is listed as “binds”.

B2: rsmY upstream 35mer (dsDNA)
DNA 1: CTCTTCTTAATTGAGAAATTTCTTACATATTACTGC
DNA 2: GCAGTAATATGTAAGAAATTTCTCAATTAAGAAGAG
In the case of B2, the binding result is reported as “binds”.
